What was measured:
Assay in all cases: cell-based or functional assay
[1] = target: chymotrypsin-like site (β5 subunit) of yeast 20S proteasome (S. cerevisiae) (UniProt P30656)
[2] = target: proteasome β5 subunit (chymotrypsin-like site) in human cells and cell extracts (human) (UniProt P28074)
[3] = target: proteasome β2 subunit (trypsin-like site) in human cells and cell extracts (human) (UniProt Q99436)
[4] = target: trypsin-like site (β2 subunit) of yeast 20S proteasome (S. cerevisiae) (UniProt P25043)
trypsin-like site (β2 subunit) of yeast 20S proteasome (S. cerevisiae), sequence (P25043 30-261): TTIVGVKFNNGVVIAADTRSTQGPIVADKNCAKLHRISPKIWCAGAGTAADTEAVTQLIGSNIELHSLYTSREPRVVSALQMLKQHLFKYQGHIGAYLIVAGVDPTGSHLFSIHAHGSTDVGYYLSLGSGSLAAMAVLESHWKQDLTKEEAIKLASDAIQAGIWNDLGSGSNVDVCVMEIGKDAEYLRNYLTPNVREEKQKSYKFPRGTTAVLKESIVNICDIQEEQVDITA

[5] = target: trypsin-like site (β2 subunit) of 26S proteasomes purified from rabbit muscle (rabbit) (UniProt G1SWK8)
trypsin-like site (β2 subunit) of 26S proteasomes purified from rabbit muscle (rabbit), sequence (G1SWK8 entry or part of it): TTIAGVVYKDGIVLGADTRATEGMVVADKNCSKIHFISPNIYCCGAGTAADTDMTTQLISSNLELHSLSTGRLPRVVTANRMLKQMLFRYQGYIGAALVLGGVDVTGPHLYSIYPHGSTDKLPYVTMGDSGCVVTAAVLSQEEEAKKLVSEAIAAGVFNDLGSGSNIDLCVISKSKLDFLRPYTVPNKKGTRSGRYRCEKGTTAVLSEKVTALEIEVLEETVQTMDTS

[6] = target: chymotrypsin-like site (β5 subunit) of 26S proteasomes purified from rabbit muscle (rabbit) (UniProt G1T4Q9)
chymotrypsin-like site (β5 subunit) of 26S proteasomes purified from rabbit muscle (rabbit), sequence (G1T4Q9 entry or part of it): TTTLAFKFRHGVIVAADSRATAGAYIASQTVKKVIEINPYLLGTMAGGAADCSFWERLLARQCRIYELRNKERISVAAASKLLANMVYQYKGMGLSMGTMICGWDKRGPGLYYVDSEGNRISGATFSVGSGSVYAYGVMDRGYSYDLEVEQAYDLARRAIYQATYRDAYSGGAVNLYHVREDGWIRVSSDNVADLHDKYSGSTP

[7] = target: caspase-like site (β1 subunit) of 26S proteasomes purified from rabbit muscle (rabbit)
[8] = target: proteasome β1 subunit (caspase-like site) in human cells and cell extracts (human) (UniProt P28072)
proteasome β1 subunit (caspase-like site) in human cells and cell extracts (human), sequence (P28072 35-239): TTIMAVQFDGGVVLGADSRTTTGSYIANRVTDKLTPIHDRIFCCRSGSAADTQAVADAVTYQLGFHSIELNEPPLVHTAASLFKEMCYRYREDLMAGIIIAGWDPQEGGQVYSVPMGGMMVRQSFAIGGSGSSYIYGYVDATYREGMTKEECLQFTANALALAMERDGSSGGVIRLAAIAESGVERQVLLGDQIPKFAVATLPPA

proteasome β5 subunit (chymotrypsin-like site) in human cells and cell extracts (human), sequence (P28074 60-263): as the sequence (G1T4Q9 entry or part of it) above, with D197E counted along it
proteasome β2 subunit (trypsin-like site) in human cells and cell extracts (human), sequence (Q99436 44-277): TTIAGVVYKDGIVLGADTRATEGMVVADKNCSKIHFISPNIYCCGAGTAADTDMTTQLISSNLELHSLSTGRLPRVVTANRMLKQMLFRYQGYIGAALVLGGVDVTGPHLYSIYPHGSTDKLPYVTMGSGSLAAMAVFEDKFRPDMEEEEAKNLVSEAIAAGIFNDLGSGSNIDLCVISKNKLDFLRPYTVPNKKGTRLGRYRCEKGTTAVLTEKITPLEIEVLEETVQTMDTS
chymotrypsin-like site (β5 subunit) of yeast 20S proteasome (S. cerevisiae), sequence (P30656 76-287): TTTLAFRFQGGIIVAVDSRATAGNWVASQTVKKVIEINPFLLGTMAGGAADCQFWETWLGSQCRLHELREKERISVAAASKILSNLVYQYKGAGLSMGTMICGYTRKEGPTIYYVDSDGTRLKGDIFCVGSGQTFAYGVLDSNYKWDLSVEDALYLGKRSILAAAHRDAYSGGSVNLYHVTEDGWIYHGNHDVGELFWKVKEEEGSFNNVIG

Substance: HMB-Val-Ser-Phe(4-CH2NH2)-VS (48) (peptide)
- IC50 (µM) for yeast 20S proteasome: Chym-L [1]: 19.3 µM
- IC50 (µM) for sites: Chym-L; NCI-H929 cells, 6 h, PROTEASOMEGLO [2]: 13 µM
- IC50 (µM) for sites: Chym-L; RPMI-8226 cells, 6 h, PROTEASOMEGLO [2]: 15 µM
- IC50 (µM) for sites: Tr-L; NCI-H929 cells, 6 h, PROTEASOMEGLO [3]: 0.2 µM
- IC50 (µM) for sites: Tr-L; RPMI-8226 cells, 6 h, PROTEASOMEGLO [3]: 3.2 µM
- IC50 (µM) for yeast 20S proteasome: Tr-L [4]: 1.6 µM

Substance: HMB-Val-Ser-Phe(4-NH2)-VS (49) (peptide)
- IC50 (µM) for sites in 26S proteasomes: Tr-L [5]: 0.11 µM
- IC50 (µM) for sites in 26S proteasomes: Chym-L [6]: 0.04 µM
- IC50 (µM) for sites in 26S proteasomes: Casp-L [7]: 23 µM

Substance: LU-005 (peptide)
- Inhibition of active sites (% control): β1; KMS-12-BM, 0.012 µM LU-005, 1 h [8]: -34%
- Inhibition of active sites (% control): β1; KMS-12-BM, 0.037 µM LU-005, 1 h [8]: -1%
- Inhibition of active sites (% control): β1; KMS-12-BM, 0.11 µM LU-005, 1 h [8]: 3%
- Inhibition of active sites (% control): β1; KMS-12-BM, 0.33 µM LU-005, 1 h [8]: 6%
- Inhibition of active sites (% control): β1; KMS-12-BM, 1.0 µM LU-005, 1 h [8]: 11%
- Inhibition of active sites (% control): β1; KMS-18, 0.037 µM LU-005, 1 h [8]: 0%
- Inhibition of active sites (% control): β1; KMS-18, 0.11 µM LU-005, 1 h [8]: 21%
- Inhibition of active sites (% control): β1; KMS-18, 0.33 µM LU-005, 1 h [8]: 29%
- Inhibition of active sites (% control): β1; KMS-18, 1.0 µM LU-005, 1 h [8]: 32%
- Inhibition of active sites (% control): β1; KMS-18, 3.0 µM LU-005, 1 h [8]: 39%
- Inhibition of active sites (% control): β1; KMS-18, 9.0 µM LU-005, 1 h [8]: 42%
- Inhibition of active sites (% control): β1; MM1.R, 0.004 µM LU-005, 1 h [8]: 6%
- Inhibition of active sites (% control): β1; MM1.R, 0.011 µM LU-005, 1 h [8]: 3%
- Inhibition of active sites (% control): β1; MM1.R, 0.043 µM LU-005, 1 h [8]: 6%
- Inhibition of active sites (% control): β1; MM1.R, 0.11 µM LU-005, 1 h [8]: 27%
- Inhibition of active sites (% control): β1; NCI-H929, 0.0014 µM LU-005, 1 h [8]: -14%
- Inhibition of active sites (% control): β1; NCI-H929, 0.004 µM LU-005, 1 h [8]: -7%
- Inhibition of active sites (% control): β1; NCI-H929, 0.011 µM LU-005, 1 h [8]: 5.5%
- Inhibition of active sites (% control): β1; NCI-H929, 0.043 µM LU-005, 1 h [8]: 15%
- Inhibition of active sites (% control): β1; NCI-H929, 0.11 µM LU-005, 1 h [8]: 6%
- Inhibition of active sites (% control): β1; RPMI-8226, 0.012 µM LU-005, 1 h [8]: -34%
- Inhibition of active sites (% control): β1; RPMI-8226, 0.037 µM LU-005, 1 h [8]: 16%
- Inhibition of active sites (% control): β1; RPMI-8226, 0.11 µM LU-005, 1 h [8]: 23%
- Inhibition of active sites (% control): β1; RPMI-8226, 0.33 µM LU-005, 1 h [8]: 37%
- Inhibition of active sites (% control): β1; RPMI-8226, 1.0 µM LU-005, 1 h [8]: 37%
- Inhibition of active sites (% control): β5; KMS-12-BM, 0.012 µM LU-005, 1 h [2]: 16%
- Inhibition of active sites (% control): β5; KMS-12-BM, 0.037 µM LU-005, 1 h [2]: 48%
- Inhibition of active sites (% control): β5; KMS-12-BM, 0.11 µM LU-005, 1 h [2]: 56%
- Inhibition of active sites (% control): β5; KMS-12-BM, 0.33 µM LU-005, 1 h [2]: 81%
- Inhibition of active sites (% control): β5; KMS-12-BM, 1.0 µM LU-005, 1 h [2]: 95%
- Inhibition of active sites (% control): β5; KMS-18, 0.037 µM LU-005, 1 h [2]: 14%
- Inhibition of active sites (% control): β5; KMS-18, 0.11 µM LU-005, 1 h [2]: 47%
- Inhibition of active sites (% control): β5; KMS-18, 0.33 µM LU-005, 1 h [2]: 69%
- Inhibition of active sites (% control): β5; KMS-18, 1.0 µM LU-005, 1 h [2]: 85%
- Inhibition of active sites (% control): β5; KMS-18, 3.0 µM LU-005, 1 h [2]: 94%
- Inhibition of active sites (% control): β5; KMS-18, 9.0 µM LU-005, 1 h [2]: 97%
- Inhibition of active sites (% control): β5; MM1.R, 0.004 µM LU-005, 1 h [2]: 17%
- Inhibition of active sites (% control): β5; MM1.R, 0.011 µM LU-005, 1 h [2]: 31%
- Inhibition of active sites (% control): β5; MM1.R, 0.043 µM LU-005, 1 h [2]: 54%
- Inhibition of active sites (% control): β5; MM1.R, 0.11 µM LU-005, 1 h [2]: 76%
- Inhibition of active sites (% control): β5; NCI-H929, 0.0014 µM LU-005, 1 h [2]: 22%
- Inhibition of active sites (% control): β5; NCI-H929, 0.004 µM LU-005, 1 h [2]: 22%
- Inhibition of active sites (% control): β5; NCI-H929, 0.011 µM LU-005, 1 h [2]: 48%
- Inhibition of active sites (% control): β5; NCI-H929, 0.043 µM LU-005, 1 h [2]: 72%
- Inhibition of active sites (% control): β5; NCI-H929, 0.11 µM LU-005, 1 h [2]: 86%
- Inhibition of active sites (% control): β5; RPMI-8226, 0.012 µM LU-005, 1 h [2]: 16%
- Inhibition of active sites (% control): β5; RPMI-8226, 0.037 µM LU-005, 1 h [2]: 45%
- Inhibition of active sites (% control): β5; RPMI-8226, 0.11 µM LU-005, 1 h [2]: 49%
- Inhibition of active sites (% control): β5; RPMI-8226, 0.33 µM LU-005, 1 h [2]: 62%
- Inhibition of active sites (% control): β5; RPMI-8226, 1.0 µM LU-005, 1 h [2]: 82%
- Inhibition of active sites (% control): β2; KMS-12-BM, 0.012 µM LU-005, 1 h [3]: -21%
- Inhibition of active sites (% control): β2; KMS-12-BM, 0.037 µM LU-005, 1 h [3]: -12%
- Inhibition of active sites (% control): β2; KMS-12-BM, 0.11 µM LU-005, 1 h [3]: 4.7%
- Inhibition of active sites (% control): β2; KMS-12-BM, 0.33 µM LU-005, 1 h [3]: 3%
- Inhibition of active sites (% control): β2; KMS-12-BM, 1.0 µM LU-005, 1 h [3]: 29%
- Inhibition of active sites (% control): β2; KMS-18, 0.037 µM LU-005, 1 h [3]: -13%
- Inhibition of active sites (% control): β2; KMS-18, 0.11 µM LU-005, 1 h [3]: 12%
- Inhibition of active sites (% control): β2; KMS-18, 0.33 µM LU-005, 1 h [3]: 24%
- Inhibition of active sites (% control): β2; KMS-18, 1.0 µM LU-005, 1 h [3]: 38%
- Inhibition of active sites (% control): β2; KMS-18, 3.0 µM LU-005, 1 h [3]: 50%
- Inhibition of active sites (% control): β2; KMS-18, 9.0 µM LU-005, 1 h [3]: 62%
- Inhibition of active sites (% control): β2; MM1.R, 0.004 µM LU-005, 1 h [3]: 6.5%
- Inhibition of active sites (% control): β2; MM1.R, 0.011 µM LU-005, 1 h [3]: 5%
- Inhibition of active sites (% control): β2; MM1.R, 0.043 µM LU-005, 1 h [3]: 5%
- Inhibition of active sites (% control): β2; MM1.R, 0.11 µM LU-005, 1 h [3]: 23%
- Inhibition of active sites (% control): β2; NCI-H929, 0.0014 µM LU-005, 1 h [3]: -9%
- Inhibition of active sites (% control): β2; NCI-H929, 0.004 µM LU-005, 1 h [3]: -13%
- Inhibition of active sites (% control): β2; NCI-H929, 0.011 µM LU-005, 1 h [3]: -6%
- Inhibition of active sites (% control): β2; NCI-H929, 0.043 µM LU-005, 1 h [3]: 6%
- Inhibition of active sites (% control): β2; NCI-H929, 0.11 µM LU-005, 1 h [3]: 11%
- Inhibition of active sites (% control): β2; RPMI-8226, 0.012 µM LU-005, 1 h [3]: -21%
- Inhibition of active sites (% control): β2; RPMI-8226, 0.037 µM LU-005, 1 h [3]: 1%
- Inhibition of active sites (% control): β2; RPMI-8226, 0.11 µM LU-005, 1 h [3]: 3%
- Inhibition of active sites (% control): β2; RPMI-8226, 0.33 µM LU-005, 1 h [3]: 13%
- Inhibition of active sites (% control): β2; RPMI-8226, 1.0 µM LU-005, 1 h [3]: 22%

Substance: N3-Phe-Ala(4-pyridine)-Leu-Phe(4-CH2NH2-TFA)-VS (50) (peptide)
- IC50 (µM) for sites: Casp-L [7]: 30 µM
